# In patent US12514853B2, “Therapeutic dendrimer” (Starpharma Pty Ltd, priority 2018, dated 2026):
# “And” between values parts separate entries of the source, which are not always exact repeats. Identical values can stand only once. Like-named read-outs stand apart in the source and are kept apart here.
# Tests used:
# [1] = system: HT-29 (human colon carcinoma cell line) xenograft; assay: Efficacy alone or in combination with olaparib in HT-29 xenograft model in mice; type: in vivo, Balb/c nude mice; conditions: for Percent TGI: day 28; for effect on HT-29 tumour growth (in words): olaparib 50 mg/kg orally, irinotecan 80 mg/kg IV, their combination, 2f 5 and 8 mg/kg IV
# Protocol: Olaparib solid powder obtained from MedChemExpress was solubilised in DMSO and an oral formulation was prepared at a final concentration of 5 mg/ml in 10% DMSO: 15% (2-Hydroxypropyl)-β-cyclodextrin in sterile water.
# The endpoint for the analysis was a tumour volume of 1200 mm^3.
# Statistical analysis of tumour growth was performed on day 28 when the first study animals reached endpoint criteria for tumour burden.
# [2] = system: HT-29 cells (human colon cancer cell line); assay: In-vitro anti-cancer drug screening, cell counting (SRB) assay; type: cell-based; conditions: concentration required to inhibit net cell growth by 50%
# Protocol: A study was carried out to determine the ability of example dendrimers to inhibit growth of HT-29 cells (human colon cancer cell line) using a cell counting (SRB) assay.
# [3] = SN-38 release from dendrimers in 9:1 PBS/DMA at 37° C. and pH 7.4; type: physicochemical; conditions: SN-38 released, pH 7.4, 1 mg/mL dendrimer
# Protocol: A study was carried out to determine the rate of SN-38 release from certain dendrimeric compounds in 9:1 PBS (phosphate-buffered saline): DMA at 37° C. and pH 7.4.
# The PBS release study was conducted by preparing 1 mg/mL solutions of dendrimer in 9:1 v/v (PBS/DMA) immediately prior to incubation at 37° C. Samples were analysed at 6 h and 18 h and other timepoints by HPLC, comparing the % peak area of SN-38 to the % peak area of dendrimer construct. HPLC (C8 Xbridge, 3×100 mm), gradient: 5% ACN/H2O (0-1 min), 5-80% ACN (1-7 min), 80% ACN (7-12 min), 80-5% ACN (12-13 min), 5% ACN (13-15 min), 243 nm, 10 mM ammonium formate buffer, 0.4 mL/min.
# [4] = plasma release study (SN-38 release in rat plasma); type: in vitro ADME; conditions: 37° C.
# [5] = Single dose pharmacokinetic study in rats; conditions: rat, single slow bolus IV
# [6] = system: CAPAN-1 (pancreatic cancer cell line) xenograft; assay: Efficacy in CAPAN-1 xenograft model in mice; type: in vivo
# [7] = system: SW620 (human colon carcinoma cell line) xenograft; assay: Efficacy in SW620 xenograft model in mice; conditions: for effect on SW620 tumour growth / tolerability: irinotecan 90 mg/kg; for effect on SW620 tumour growth: 2f 15, 2i 15, 2h 25, 2a 25 mg/kg IV days 1, 8, 15, study to day 119; for tolerability: 2f 15, 2i 15, 2h 25, 2a 25 mg/kg IV once weekly for three weeks
# [8] = system: HT-29 (human colon carcinoma cell line) xenograft; assay: Efficacy in HT-29 xenograft model in mice; type: in vivo, Balb/c nude mice; conditions: for effect on HT-29 tumour growth: 2f 15, 2i 15, 2h 25 mg/kg SN-38 equivalents IV once weekly; for Tumour growth inhibited: day 36, vs vehicle, irinotecan 90 mg/kg, 2f 15, 2i 15, 2h 25 mg/kg IV
# [9] = system: HT-29 (human colon carcinoma cell line) xenograft; assay: Efficacy alone or in combination with cetuximab in HT-29 xenograft model in mice
# [10] = system: MDA-MB-231 (human breast carcinoma cell line) xenograft; assay: Efficacy in MDA-MB-231 xenograft model in mice; type: in vivo, Balb/c nude mice; conditions: irinotecan 90 mg/kg, 2f 15, 2h 25 mg/kg IV once weekly for three weeks
# [11] = for tolerability: 2f 15 mg/kg, 2i 15 mg/kg, 2h 25 mg/kg, 2a 30 mg/kg SN-38 equivalents, IV once weekly for three weeks
# [12] = high dose 2f (approx. 16.5 mg/kg SN-38 equivalents)
# [13] = low dose 2f (approx. 1.3 mg/kg SN-38 equivalents)
# [14] = medium dose 2f (approx. 7.5 mg/kg SN-38 equiv)
# [15] = 15 mg/kg SN-38 equivalents IV once weekly for 3 weeks
# [16] = 20 mg/kg SN-38 equivalents IV once weekly for 3 weeks
# [17] = 30 mg/kg SN-38 equivalents IV once weekly for 3 weeks
compound,measurement,setting,value
"O=C(c1cc(Cc2n[nH]c(=O)c3ccccc23)ccc1F)N1CCN(C(=O)C2CC2)CC1 [Olaparib, reference compound]",Percent TGI,"[1]; olaparib 50 mg/kg orally 5 days on/2 days off for 3 weeks, irinotecan 80 mg/kg IV days 1, 8, 15",0%
same,effect on HT-29 tumour growth (in words),[1],no effect on tumour growth
"CCc1c2c(nc3ccc(O)cc13)-c1cc3c(c(=O)n1C2)COC(=O)[C@]3(O)CC [SN-38, reference compound]",GI50,[2]; Homo sapiens,< 10 nM
BHALys[Lys]32[α-DGA-C10-SN-38]32†[ε-PEG˜2300]32‡ [Dendrimer 2e],% Release at 6 h in 9:1 PBS/DMA at 37° C.,[3],64%
same,% Release at 18 h in 9:1 PBS/DMA at 37° C.,[3],71%
same,% SN-38 released,[4]; 0.5 h,30.58%
same,% SN-38 released,[4]; 2 h,57.54%
same,% SN-38 released,[4]; 4 h,67.96%
same,% SN-38 released,[4]; 6 h,75.16%
same,% SN-38 released,[4]; 22 h,95.38%
same,GI50,[2],< 10 nM
BHALys[Lys]32[α-DGA-C20-Irinotecan]32†[ε-PEG˜2300]32‡ [Dendrimer 2j],GI50,[2],12000 nM
BHALys[Lys]32[α-DGA-C20-SN-38]32†[ε-PEG˜2100]32‡ [Dendrimer 2f],"AUC0-∞, free SN-38",[5]; [12],"6,677 ng · hr/mL"
same,"Cmax, free SN-38",[5]; [12],289 ng/mL
same,"Cmax, total SN-38",[5]; [12],"306,500 ng/mL"
same,Free SN-38 at 120 hours,[5]; [12],10.8 ng/mL
same,Total SN-38 at 120 hours,[5]; [12],792.5 ng/mL
same,"AUC0-∞, free SN-38",[5]; [13],"1,196 ng · hr/mL"
same,"Cmax, free SN-38",[5]; [13],93 ng/mL
same,"Cmax, total SN-38",[5]; [13],"32,767 ng/mL"
same,Free SN-38 at 120 hours,[5]; [13],0.8 ng/mL
same,Total SN-38 at 120 hours,[5]; [13],111.5 ng/mL
same,"AUC0-∞, free SN-38",[5]; [14],"3,179 ng · hr/mL"
same,"Cmax, free SN-38",[5]; [14],164 ng/mL
same,"Cmax, total SN-38",[5]; [14],"150,334 ng/mL"
same,Free SN-38 at 120 hours,[5]; [14],3.7 ng/mL
same,Total SN-38 at 120 hours,[5]; [14],498 ng/mL
same,effect on CAPAN-1 tumour growth,[6]; administered intraperitoneally once weekly for three weeks,induces CAPAN-1 tumour regression
same,effect on CAPAN-1 tumour growth,[6]; administered intravenously once weekly for three weeks,induces CAPAN-1 tumour regression
same,effect on SW620 tumour growth,[7],induce regression of SW620 tumours
same,tolerability,[7],well tolerated
same,effect on HT-29 tumour growth,[8],induce transient regression of HT-29 tumours
same,Tumour growth inhibited,[8],108%
same,% Release at 6 h in 9:1 PBS/DMA at 37° C.,[3],24%
same,% Release at 18 h in 9:1 PBS/DMA at 37° C.,[3],55%
same,survival versus cetuximab,[9]; 2f 10 and 5 mg/kg vs cetuximab 25 mg/kg,prolonged survival versus cetuximab
same,survival versus irinotecan,"[9]; 2f 10 and 5 mg/kg vs irinotecan 35 mg/kg, P<0.0001",significantly prolonged survival versus irinotecan
same,effect on MDA-MB-231 tumour growth,[10],induce MDA-MB-231 tumour regression
same,tumour growth and tumour regression versus irinotecan,"[1]; 2f 5 and 8 mg/kg vs irinotecan 80 mg/kg, P <0.0001",significantly inhibited tumour growth and prolonged tumour regression versus irinotecan
same,tumour regression versus olaparib,[1]; 2f 5 and 8 mg/kg vs olaparib 50 mg/kg,prolonged tumour regression versus olaparib
same,Percent TGI,"[1]; 5 mg/kg 2f IV days 1, 8, 15, alone or with olaparib 50 mg/kg orally",62%
same,Percent TGI,"[1]; 8 mg/kg 2f IV days 1, 8, 16, alone or with olaparib 50 mg/kg orally",94% and 97%
same,effect on HT-29 tumour growth (in words),[1],clear dose dependent repose with statistically significant inhibition of tumour growth
same,Max. body weight loss (%),[11]; [15],4%
same,Max. body weight loss (%),[11]; [16],10%
same,Max. body weight loss (%),[11]; [17],22%
same,tolerability,[11],well tolerated
same,% SN-38 released,[4]; 0.5 h,5.06%
same,% SN-38 released,[4]; 2 h,24.56%
same,% SN-38 released,[4]; 4 h,45.36%
same,% SN-38 released,[4]; 6 h,61.81%
same,% SN-38 released,[4]; 22 h,95.61%
same,GI50,[2],50 nM and 40 nM
BHALys[Lys]32[α-Glu-C10-SN-38]32†[ε-PEG˜2300]32‡ [Dendrimer 2a],animals euthanized due to weight loss,"[7]; 2a 25 mg/kg IV days 1, 8, 15, group of 6",One animal from the 2a group was euthanized during the study due to weight loss on Day 99
same,effect on SW620 tumour growth,[7],induce regression of SW620 tumours
same,tolerability,[7],well tolerated
same,% Release at 6 h in 9:1 PBS/DMA at 37° C.,[3],9%
same,% Release at 18 h in 9:1 PBS/DMA at 37° C.,[3],38%
same,Max. body weight loss (%),[11]; 10 mg/kg SN-38 equivalents IV once weekly for 3 weeks,0%
same,Max. body weight loss (%),[11]; [17],10%
same,tolerability,[11],well tolerated
same,% SN-38 released,[4]; 0.5 h,1.59%
same,% SN-38 released,[4]; 2 h,4.47%
same,% SN-38 released,[4]; 4 h,7.57%
same,% SN-38 released,[4]; 6 h,11.28%
same,% SN-38 released,[4]; 22 h,42.46%
same,GI50,[2],130 nM
BHALys[Lys]32[α-Glu-C20-SN-38]32†[ε-PEG˜2300]32‡ [Dendrimer 2b],% Release at 6 h in 9:1 PBS/DMA at 37° C.,[3],0%
same,% Release at 18 h in 9:1 PBS/DMA at 37° C.,[3],3%
same,% SN-38 released,[4]; 0.5 h,0.93%
same,% SN-38 released,[4]; 2 h,1.27%
same,% SN-38 released,[4]; 4 h,1.94%
same,% SN-38 released,[4]; 6 h,2.73%
same,% SN-38 released,[4]; 22 h,12.17%
BHALys[Lys]32[α-TDA-C10-SN-38]32†[ε-PEG˜2100]32‡ [Dendrimer 2c],% Release at 6 h in 9:1 PBS/DMA at 37° C.,[3],54%
same,% Release at 18 h in 9:1 PBS/DMA at 37° C.,[3],55%
same,% SN-38 released,[4]; 0.5 h,20.52%
same,% SN-38 released,[4]; 2 h,38.32%
same,% SN-38 released,[4]; 4 h,48.79%
same,% SN-38 released,[4]; 6 h,53.42%
same,% SN-38 released,[4]; 22 h,69.8%
same,GI50,[2],30 nM
BHALys[Lys]32[α-TDA-C20-Irinotecan]32†[ε-PEG˜2100]32‡ [Dendrimer 2k],GI50,[2],46000 nM
BHALys[Lys]32[α-TDA-C20-SN-38]32†[ε-PEG˜2300]32‡ [Dendrimer 2d],% Release at 6 h in 9:1 PBS/DMA at 37° C.,[3],5%
same,% Release at 18 h in 9:1 PBS/DMA at 37° C.,[3],13%
same,% SN-38 released,[4]; 0.5 h,1.87%
same,% SN-38 released,[4]; 2 h,5.47%
same,% SN-38 released,[4]; 4 h,9.50%
same,% SN-38 released,[4]; 6 h,14.92%
same,% SN-38 released,[4]; 22 h,46.69%
same,GI50,[2],140 nM
BHALys[Lys]32[α-THF-C20-SN-38]32†[ε-PEG˜2300]32‡ [Dendrimer 2i],effect on SW620 tumour growth,[7],induce regression of SW620 tumours
same,tolerability,[7],well tolerated
same,effect on HT-29 tumour growth,[8],induce transient regression of HT-29 tumours
same,Tumour growth inhibited,[8],103%
same,% Release at 6 h in 9:1 PBS/DMA at 37° C.,[3],40%
same,% Release at 18 h in 9:1 PBS/DMA at 37° C.,[3],60%
same,Max. body weight loss (%),[11]; [15],8%
same,Max. body weight loss (%),[11]; [16],15%
same,Max. body weight loss (%),[11]; [17],15%
same,tolerability,[11],well tolerated
